{
  "source": "patent US20200132691A1",
  "about": "“DETECTION AND TARGETING OF TUMOR-PROMOTING NEUTROPHILS” (THE GENERAL HOSPITAL CORPORATION, priority 2017, published 2020)",
  "key": {"Ocn+ cells": {"tested_on": "Ocn+ cells", "assay": "In vivo osteoblast depletion with diphtheria toxin", "design": "species or system mouse", "settings": "OcnCre;Dtr or OcnCre;Dtr/Yfp mice; flow cytometry, immunohistochemistry, in situ microscopy, bone histomorphometry", "experimental": "(§1) Ocn^Cre;Dtr, Ocn^Cre;Dtr/Yfp and control mice lacking either transgene were treated i.p. with DT (100 μl; 20 μg/kg, Sigma-Aldrich) every other day for 9 days with a total of five injections per mouse. In some experiments, osteoblast depletion was performed for 3 consecutive days using DT. For both DT treatment protocols, osteoblast depletion was verified. Body weight was monitored to control for DT-induced toxicity. Osteoblast depletion was verified using histological evaluation of femurs, IHC for osteocalcin and ex vivo whole mount immunofluorescence of Ocn^Cre;Dtr/Yfp mice."}, "[1]": {"assay": "Body weight monitoring for DT-induced toxicity", "format": "in vivo, mouse", "settings": "DT-treated mice", "experimental": "as §1"}, "neutrophils": {"tested_on": "neutrophils", "assay": "Neutrophil counts in wild-type mice treated with DT", "settings": "bone marrow"}, "splenocytes": {"tested_on": "splenocytes", "assay": "In vitro assay of DT-mediated direct effects on hematopoietic cells (splenocytes)"}},
  "data": [
    {"substance": "diphtheria toxin [DT]", "values": [
      {"measurement": "Ocn+ cell numbers", "setting": "Ocn+ cells", "value": "significantly reduced"},
      {"measurement": "body weight", "setting": "[1]", "value": "did not affect"},
      {"measurement": "neutrophil counts", "setting": "neutrophils", "value": "maintained"},
      {"measurement": "viability of hematopoietic cells", "setting": "splenocytes; DT concentration used, in vitro DT titration and in vivo cellular staining by flow cytometry", "value": "did not affect the viability"},
      {"measurement": "killing of CD11b+ myeloid cells", "setting": "splenocytes; cells from OcnCre;Dtr mice, in vitro", "value": "not killed"},
      {"measurement": "killing of DTR+ cells", "setting": "splenocytes; positive control, in vitro", "value": "ability to kill"}
    ]}
  ]
}
